Measured values as given in patent US20200115430A1 (I2O THERAPEUTICS, published 2020).
Starred links: 1 amine or outer side, 2 acyl side, 3 side chain; linkers in the order of their positions; H or OH if unused. Positions of bridges follow the written chain, without caps; N, C: chain ends. Groups on a side chain read outwards from the residue. No end group written: not given here. *: point of attachment. C20 diacid = O=C(O)CCCCCCCCCCCCCCCCCCC(=O)*; C18 diacid = O=C(O)CCCCCCCCCCCCCCCCC(=O)*; γGlu = O=C(O)[C@H](CCC(=O)[*:2])N[*:1]

T1: human amylin 3 receptor (human, UniProt P30988 25-474; O60896 24-148)
T1 sequence (looked up) 1: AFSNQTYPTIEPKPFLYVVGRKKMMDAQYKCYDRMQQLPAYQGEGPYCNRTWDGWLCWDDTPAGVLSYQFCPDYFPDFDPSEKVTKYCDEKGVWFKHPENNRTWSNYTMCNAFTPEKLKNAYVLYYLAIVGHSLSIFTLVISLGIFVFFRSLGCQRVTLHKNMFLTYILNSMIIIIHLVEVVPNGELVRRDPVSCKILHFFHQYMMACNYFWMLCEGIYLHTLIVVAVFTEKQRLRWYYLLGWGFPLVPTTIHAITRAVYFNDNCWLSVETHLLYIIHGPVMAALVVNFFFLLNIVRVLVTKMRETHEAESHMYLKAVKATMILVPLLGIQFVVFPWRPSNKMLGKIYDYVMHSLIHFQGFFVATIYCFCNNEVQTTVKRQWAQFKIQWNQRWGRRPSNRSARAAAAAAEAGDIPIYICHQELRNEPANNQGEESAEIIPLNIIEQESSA
T1 sequence (looked up) 2: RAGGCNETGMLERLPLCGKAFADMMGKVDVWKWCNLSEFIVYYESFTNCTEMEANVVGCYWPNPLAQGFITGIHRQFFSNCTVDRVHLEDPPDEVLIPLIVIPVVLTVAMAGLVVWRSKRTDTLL

T2: human calcitonin receptor (human, UniProt P30988 25-474)
T2 sequence (looked up): T1 sequence (looked up) 1

B1: Compound A116 (peptide)
peptide: K([γGlu-C20 diacid])CNTSTCATSRLANFLQKSSNNFGPILPPTKVGSETY-NH2
modifications: disulfide 2-7; N-terminus assumed
SMILES: CC[C@H](C)[C@H](NC(=O)[C@@H]1CCCN1C(=O)CNC(=O)[C@H](Cc1ccccc1)NC(=O)[C@H](CC(N)=O)NC(=O)[C@H](CC(N)=O)NC(=O)[C@H](CO)NC(=O)[C@H](CO)NC(=O)[C@H](CCCCN)NC(=O)[C@H](CCC(N)=O)NC(=O)[C@H](CC(C)C)NC(=O)[C@H](Cc1ccccc1)NC(=O)[C@H](CC(N)=O)NC(=O)[C@H](C)NC(=O)[C@H](CC(C)C)NC(=O)[C@H](CCCNC(=N)N)NC(=O)[C@H](CO)NC(=O)[C@@H](NC(=O)[C@H](C)NC(=O)[C@@H]1CSSC[C@H](NC(=O)[C@@H](N)CCCCNC(=O)CC[C@H](NC(=O)CCCCCCCCCCCCCCCCCCC(=O)O)C(=O)O)C(=O)N[C@@H](CC(N)=O)C(=O)N[C@@H]([C@@H](C)O)C(=O)N[C@@H](CO)C(=O)N[C@@H]([C@@H](C)O)C(=O)N1)[C@@H](C)O)C(=O)N[C@@H](CC(C)C)C(=O)N1CCC[C@H]1C(=O)N1CCC[C@H]1C(=O)N[C@H](C(=O)N[C@@H](CCCCN)C(=O)N[C@H](C(=O)NCC(=O)N[C@@H](CO)C(=O)N[C@@H](CCC(=O)O)C(=O)N[C@H](C(=O)N[C@@H](Cc1ccc(O)cc1)C(N)=O)[C@@H](C)O)C(C)C)[C@@H](C)O
B2: Compound A114 (peptide)
peptide: K([γGlu-γGlu-C20 diacid])CNTSTCATSRLANFLQKSSNNFGPILPPTKVGSETY-NH2
modifications: disulfide 2-7; N-terminus assumed
SMILES: CC[C@H](C)[C@H](NC(=O)[C@@H]1CCCN1C(=O)CNC(=O)[C@H](Cc1ccccc1)NC(=O)[C@H](CC(N)=O)NC(=O)[C@H](CC(N)=O)NC(=O)[C@H](CO)NC(=O)[C@H](CO)NC(=O)[C@H](CCCCN)NC(=O)[C@H](CCC(N)=O)NC(=O)[C@H](CC(C)C)NC(=O)[C@H](Cc1ccccc1)NC(=O)[C@H](CC(N)=O)NC(=O)[C@H](C)NC(=O)[C@H](CC(C)C)NC(=O)[C@H](CCCNC(=N)N)NC(=O)[C@H](CO)NC(=O)[C@@H](NC(=O)[C@H](C)NC(=O)[C@@H]1CSSC[C@H](NC(=O)[C@@H](N)CCCCNC(=O)CC[C@H](NC(=O)CC[C@H](NC(=O)CCCCCCCCCCCCCCCCCCC(=O)O)C(=O)O)C(=O)O)C(=O)N[C@@H](CC(N)=O)C(=O)N[C@@H]([C@@H](C)O)C(=O)N[C@@H](CO)C(=O)N[C@@H]([C@@H](C)O)C(=O)N1)[C@@H](C)O)C(=O)N[C@@H](CC(C)C)C(=O)N1CCC[C@H]1C(=O)N1CCC[C@H]1C(=O)N[C@H](C(=O)N[C@@H](CCCCN)C(=O)N[C@H](C(=O)NCC(=O)N[C@@H](CO)C(=O)N[C@@H](CCC(=O)O)C(=O)N[C@H](C(=O)N[C@@H](Cc1ccc(O)cc1)C(N)=O)[C@@H](C)O)C(C)C)[C@@H](C)O
B3: Compound A55 (peptide)
peptide: K(C18 diacid)CNTSTCATSRLANFLQKSSNNFGPILPPTKVGSETY-NH2
modifications: disulfide 2-7; N-terminus assumed
SMILES: CC[C@H](C)[C@H](NC(=O)[C@@H]1CCCN1C(=O)CNC(=O)[C@H](Cc1ccccc1)NC(=O)[C@H](CC(N)=O)NC(=O)[C@H](CC(N)=O)NC(=O)[C@H](CO)NC(=O)[C@H](CO)NC(=O)[C@H](CCCCN)NC(=O)[C@H](CCC(N)=O)NC(=O)[C@H](CC(C)C)NC(=O)[C@H](Cc1ccccc1)NC(=O)[C@H](CC(N)=O)NC(=O)[C@H](C)NC(=O)[C@H](CC(C)C)NC(=O)[C@H](CCCNC(=N)N)NC(=O)[C@H](CO)NC(=O)[C@@H](NC(=O)[C@H](C)NC(=O)[C@@H]1CSSC[C@H](NC(=O)[C@@H](N)CCCCNC(=O)CCCCCCCCCCCCCCCCC(=O)O)C(=O)N[C@@H](CC(N)=O)C(=O)N[C@@H]([C@@H](C)O)C(=O)N[C@@H](CO)C(=O)N[C@@H]([C@@H](C)O)C(=O)N1)[C@@H](C)O)C(=O)N[C@@H](CC(C)C)C(=O)N1CCC[C@H]1C(=O)N1CCC[C@H]1C(=O)N[C@H](C(=O)N[C@@H](CCCCN)C(=O)N[C@H](C(=O)NCC(=O)N[C@@H](CO)C(=O)N[C@@H](CCC(=O)O)C(=O)N[C@H](C(=O)N[C@@H](Cc1ccc(O)cc1)C(N)=O)[C@@H](C)O)C(C)C)[C@@H](C)O
B4: Compound A73 (peptide)
peptide: SCNTSTCATQRLANEK([γGlu-C20 diacid])HKSSNNFGPILPPTKVGSETY-NH2
modifications: disulfide 2-7; N-terminus assumed
SMILES: CC[C@H](C)[C@H](NC(=O)[C@@H]1CCCN1C(=O)CNC(=O)[C@H](Cc1ccccc1)NC(=O)[C@H](CC(N)=O)NC(=O)[C@H](CC(N)=O)NC(=O)[C@H](CO)NC(=O)[C@H](CO)NC(=O)[C@H](CCCCN)NC(=O)[C@H](Cc1c[nH]cn1)NC(=O)[C@H](CCCCNC(=O)CC[C@H](NC(=O)CCCCCCCCCCCCCCCCCCC(=O)O)C(=O)O)NC(=O)[C@H](CCC(=O)O)NC(=O)[C@H](CC(N)=O)NC(=O)[C@H](C)NC(=O)[C@H](CC(C)C)NC(=O)[C@H](CCCNC(=N)N)NC(=O)[C@H](CCC(N)=O)NC(=O)[C@@H](NC(=O)[C@H](C)NC(=O)[C@@H]1CSSC[C@H](NC(=O)[C@@H](N)CO)C(=O)N[C@@H](CC(N)=O)C(=O)N[C@@H]([C@@H](C)O)C(=O)N[C@@H](CO)C(=O)N[C@@H]([C@@H](C)O)C(=O)N1)[C@@H](C)O)C(=O)N[C@@H](CC(C)C)C(=O)N1CCC[C@H]1C(=O)N1CCC[C@H]1C(=O)N[C@H](C(=O)N[C@@H](CCCCN)C(=O)N[C@H](C(=O)NCC(=O)N[C@@H](CO)C(=O)N[C@@H](CCC(=O)O)C(=O)N[C@H](C(=O)N[C@@H](Cc1ccc(O)cc1)C(N)=O)[C@@H](C)O)C(C)C)[C@@H](C)O
B5: Compound A76 (peptide)
peptide: SCNTSTCATQRLANEK([γGlu-C18 diacid])HKSSNNFGPILPPTKVGSETY-NH2
modifications: disulfide 2-7; N-terminus assumed
SMILES: CC[C@H](C)[C@H](NC(=O)[C@@H]1CCCN1C(=O)CNC(=O)[C@H](Cc1ccccc1)NC(=O)[C@H](CC(N)=O)NC(=O)[C@H](CC(N)=O)NC(=O)[C@H](CO)NC(=O)[C@H](CO)NC(=O)[C@H](CCCCN)NC(=O)[C@H](Cc1c[nH]cn1)NC(=O)[C@H](CCCCNC(=O)CC[C@H](NC(=O)CCCCCCCCCCCCCCCCC(=O)O)C(=O)O)NC(=O)[C@H](CCC(=O)O)NC(=O)[C@H](CC(N)=O)NC(=O)[C@H](C)NC(=O)[C@H](CC(C)C)NC(=O)[C@H](CCCNC(=N)N)NC(=O)[C@H](CCC(N)=O)NC(=O)[C@@H](NC(=O)[C@H](C)NC(=O)[C@@H]1CSSC[C@H](NC(=O)[C@@H](N)CO)C(=O)N[C@@H](CC(N)=O)C(=O)N[C@@H]([C@@H](C)O)C(=O)N[C@@H](CO)C(=O)N[C@@H]([C@@H](C)O)C(=O)N1)[C@@H](C)O)C(=O)N[C@@H](CC(C)C)C(=O)N1CCC[C@H]1C(=O)N1CCC[C@H]1C(=O)N[C@H](C(=O)N[C@@H](CCCCN)C(=O)N[C@H](C(=O)NCC(=O)N[C@@H](CO)C(=O)N[C@@H](CCC(=O)O)C(=O)N[C@H](C(=O)N[C@@H](Cc1ccc(O)cc1)C(N)=O)[C@@H](C)O)C(C)C)[C@@H](C)O

What follows are binders tested against T1, human amylin 3 receptor (assay: cell-based or functional assay).

| pEC50 (cAMP accumulation), 0% HSA | pEC50 (cAMP accumulation), 0.1% HSA | pEC50 (cAMP accumulation), 4% HSA | Binder |
| --- | --- | --- | --- |
| 12 pEC50 | 10.8 pEC50 | 9.5 pEC50 | B1 |
| 12.2 pEC50 | 10.7 pEC50 | 9.5 pEC50 | B2 |
| 12.2 pEC50 | 11.2 pEC50 | 9.6 pEC50 | B3 |
| 12.1 pEC50 | 10.6 pEC50 | 8.8 pEC50 | B4 |
| 11.7 pEC50 | 10.5 pEC50 | 8.7 pEC50 | B5 |
| 12.5 pEC50 | 12.6 pEC50 | 12.5 pEC50 | KCNTATCATQRLANFLVHSSNNFGPILPPTNVGSNTY-NH2 (disulfide 2-7; ends not checked) [Pramlintide] |

What follows are binders tested against T2, human calcitonin receptor (assay: cell-based or functional assay).

| pEC50 (cAMP accumulation), 0% HSA | pEC50 (cAMP accumulation), 0.1% HSA | pEC50 (cAMP accumulation), 4% HSA | Binder |
| --- | --- | --- | --- |
| 11.7 pEC50 | 10.5 pEC50 | 9.3 pEC50 | B1 |
| 11.7 pEC50 | 10.4 pEC50 | 8.8 pEC50 | B2 |
| 11.3 pEC50 | 10.2 pEC50 | 8.8 pEC50 | B3 |
| 11.3 pEC50 | 9.6 pEC50 | 7.9 pEC50 | B4 |
| 10.5 pEC50 | 9.4 pEC50 | 8.1 pEC50 | B5 |
| 11.4 pEC50 | 11.2 pEC50 | 11.1 pEC50 | KCNTATCATQRLANFLVHSSNNFGPILPPTNVGSNTY-NH2 (disulfide 2-7; ends not checked) [Pramlintide] |
